The values below come from patent US20150132779A1 (TOKYO METROPOLITAN INSTITUTE OF MEDICAL SCIENCE, published 2015).

This assay deals with T1, ubiquitin monomer (S. cerevisiae (yeast lysate), UniProt P0CG63 1-76).
T1 construct: mature; Endogenous monomer of the yeast lysate, seen by western blot in the pull-down experiment; also called monoubiquitin (free, in yeast lysate)
Briefly: pull-down from yeast lysate with biotinylated TR-TUBE and streptavidin beads, anti-ubiquitin western blot. Here is the method:
For Ub-ProT assay of yeast extracts, 30 OD₆₀₀ units of log-phase cells were harvested and lysed with glass beads in 300 μl of lysis buffer (50 mM Tris-HCl [pH 7.5], 100 mM NaCl, 10% glycerol, 10 μM MG132, 10 mM iodoacetamide, and 1× complete protease inhibitor cocktail [Roche, EDTA-free]). After centrifugation, the supernatant (100 μg) was incubated with TR-TUBE (10 μg) for 1 h at 4° C. Next, TR-TUBE-bound polyubiquitylated proteins were incubated with Dynabeads MyOne Streptavidin C1 (1 mg, Life Technologies) for 45 min at 4° C. The beads were washed three times with PBS-T, and then incubated in 100 μl of 50 mM AMBC, 0.01% Rapigest SF, and trypsin (1.5 μg) overnight at 37° C. […] After the beads were washed with PBS-T, the polyubiquitin chains were selectively eluted by 30-min incubation with 1× NuPAGE LDS sample buffer. The samples were directly subjected to electrophoresis on NuPAGE gels in order to avoid aggregation of polyubiquitin chains.
The inventors of the present invention next investigated the mean lengths of substrate-attached polyubiquitin chains in yeast lysate. To the knowledge of the inventors of the present invention, the actual chain lengths of polyubiquitylated proteins in vivo have not been previously determined. In this experiment, the inventors of the present invention used a drug-sensitive pdr5 mutant to determine the effect of a proteasome inhibitor, MG132. […]

T1 sequence (P0CG63 1-76 limits assumed): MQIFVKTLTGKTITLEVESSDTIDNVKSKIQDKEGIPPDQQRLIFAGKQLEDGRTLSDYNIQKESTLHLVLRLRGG

B1: trypsin-resistant tandem ubiquitin binding entity (TR-TUBE) (designed binder)
chain: MRGCHHHHHHGMASMTGGQQMGDIGGGGSGGGVNPQLQNPEVAFQQQLEQLSAMGFLNAEANLQALIATGGDINAAIEALLGSQPSGGGGSGGGVNPQLQNPEVAFQQQLEQLSAMGFLNAEANLQALIATGGDINAAIEALLGSQPSGGGGSGGGVNPQLQNPEVAFQQQLEQLSAMGFLNAEANLQALIATGGDINAAIEALLGSQPSGGGGSGGGVNPQLQNPEVAFQQQLEQLSAMGFLNAEANLQALIATGGDINAAIEALLGSQPSGGGGSGGGVNPQLQNPEVAFQQQLEQLSAMGFLNAEANLQALIATGGDINAAIEALLGSQPSGGGGSGGGVNPQLQNPEVAFQQQLEQLSAMGFLNAEANLQALIATGGDINAAIEALLGSQPSGGGGS
modifications: Cys residue upstream of the hexahistidine tag biotinylated with EZ-link Maleimide-PEG2-Biotin
notes: also called 6x TR-TUBE; biotinylated TR-TUBE
B1: the binding result was “no binding”.
